Assay type: physicochemical
Method: The lipophilicity was determined using the shake-flask method (logP) and qualitatively by radio-HPLC relative to ^68Ga-DOTATOC (Notni et al. [2013]; Du et al. [1998]). Radiolabels were prepared following acetone-PP. Analytical radio-HPLC (LiChrospher 100-RP-18EC, 1 mL/min) for lipophilicity studies was based on a gradient using H2O (A) and MeCN (B), each containing 0.1 % TFA. Mobile phase gradient: 0–1.5 min 1 % B, 1.5–10.5 min 99 % B, 11.5 min 99 % B, 12–15 min 1 % B. The HPLC was coupled to a UV (Hitachi L-7400) and a radioactivity (Gamma Raytest) detection system. HPLC grade solvents were used and degassed by sonication for 15–20 min prior to use.

## C[C@@H](O)[C@@H]1NC(=O)[C@H](CCCCN)NC(=O)[C@@H](Cc2c[nH]c3ccccc23)NC(=O)[C@H](Cc2ccc(O)cc2)NC(=O)[C@@H](NC(=O)[C@@H](Cc2ccccc2)NC(=O)CN2CCN(CC(=O)O)CCN(CC(=O)O)CCN(CC(=O)O)CC2)CSSC[C@@H](C(=O)N[C@H](CO)[C@@H](C)O)NC1=O [^68Ga-DOTATOC, metal not drawn]
  radio-HPLC retention time (tR) as measure of lipophilicity: 10.3 min
